Experiment [1] has as its target T1, Full-length Cyno 4-1BB (cynomolgus monkey, UniProt Q07011 24-255 (human entry)).
T1 construct: on Jurkat or CHO cells; also called FOB006; cynomolgus 4-1BB
T1 chain: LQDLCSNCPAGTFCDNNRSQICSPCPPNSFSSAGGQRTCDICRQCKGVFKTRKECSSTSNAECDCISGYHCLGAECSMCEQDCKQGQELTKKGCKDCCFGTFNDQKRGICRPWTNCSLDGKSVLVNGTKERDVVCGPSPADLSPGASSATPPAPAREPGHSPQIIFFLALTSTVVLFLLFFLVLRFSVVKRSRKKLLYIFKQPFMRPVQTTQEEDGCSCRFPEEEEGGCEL
The experiment is described as follows: binding to cells expressing full length cyno 41BB.

Experiment [2] concerns the target T2, Full-length Human 4-1BB (human, UniProt Q07011 24-255).
T2 construct: also called FOB005; CD137
The experiment is described as follows: binding to cells expressing full length human 41BB.

B1: Clone 6 anti-41BB murine monoclonal antibody (antibody, V domains shown)
VH: QVQLQQPGAELVKPGASVKLSCKASGYTFTSYWINWVKQRPGQGLEWIGNIYPGSSTTNYNEKFKSKATLTVDTSSSTAYMQLSSLTSDDSAVFYCASFSDGYYAYAMDYWVQGTSVTVSS
VL: DIQMTQTTSSLSASLGDRVTITCRASQDISNYLNWYQQKPDGTVKLLIYYTSRLHSGVPSRFSGGGSGTDYSLTISNLEQEDIATYFCQQGYTLPYTFGGGTKLEIK
notes: hybridoma-derived mouse antibody; also called mAb Clone 6; mouse clone 6
Take B1: the binding result in experiment [1] and in experiment [2] was “binds” throughout.
